{"source": "paper PMC6959147", "about": "(BioMed Research International, 2019)", "data": [{"target": "T1, recombinant human PD-L1, Fc-tagged (rhPD-L1-Fc) (Homo sapiens, UniProt Q9NZQ7)", "T1 construct": "human PD-L1 (programmed death ligand-1) extracellular domain, linked to the Fc region of human IgG1; soluble disulfide-linked homodimer; also called dimeric rhPD-L1-Fc; dimeric PD-L1; source: bought: R&D Systems", "T1 sequence (Q9NZQ7 19-238)": "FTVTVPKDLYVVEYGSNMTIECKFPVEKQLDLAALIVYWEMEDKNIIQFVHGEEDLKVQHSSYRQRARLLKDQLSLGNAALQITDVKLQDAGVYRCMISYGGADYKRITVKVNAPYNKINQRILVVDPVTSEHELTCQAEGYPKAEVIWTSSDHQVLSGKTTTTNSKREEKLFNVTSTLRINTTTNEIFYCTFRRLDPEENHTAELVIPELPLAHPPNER", "assay": "SPR; Biacore X100, 25°C, HBS-EP pH 7.4; dimeric rhPD-L1-Fc (300 RU) immobilised by amine coupling on CM5, IgG as analyte (12.5-0.39 nM wild type, 6.25-0.39 nM mutated mAbs); 1:1 Langmuir; apparent constants (KD2) of bivalent binding", "settings": "both partners purified", "units": {"Kd": "pM", "koff": "s⁻¹", "kon": "M⁻¹ s⁻¹"}, "values": [{"binder": "mAb 3_17 (IgG4 converted from scFv 3_17) (antibody, V domains shown, as the VH stretch before the HCDR3 of m14; HCDR3 of 3_17; T to S at position 1 and D to A at position 10 against the wild type; as the VH stretch after the HCDR3 of m14; as the light chain of m14; IgG4; also called IgG 3_17; source: EBNA 293 cells, cotransfected (pEU8.2 and pEU4.2), purified from the medium (protein A); copies: 2 + 2) VH: not shown VL: NFMLTQPHSVSESPGKTITISCTRSSGSIAGNYVQWYQQRPGSAPIIVIYEDNQRPSGVPDRFSGSIDSSSNSASLTISRLKTEDEADYYCQSYEASNVVFGGGTKLTVL", "Kd": 165, "koff": 0.000159, "kon": "1.01e+06"}, {"binder": "mAb 3_3 (IgG4 converted from scFv 3_3) (antibody, V domains shown, as the VH stretch before the HCDR3 of m14; HCDR3 of 3_3; T to S at position 1 and D to N at position 10 against the wild type; as the VH stretch after the HCDR3 of m14; as the light chain of m14; IgG4; also called IgG 3_3; source: EBNA 293 cells, cotransfected (pEU8.2 and pEU4.2), purified from the medium (protein A); copies: 2 + 2) VH: not shown VL: NFMLTQPHSVSESPGKTITISCTRSSGSIAGNYVQWYQQRPGSAPIIVIYEDNQRPSGVPDRFSGSIDSSSNSASLTISRLKTEDEADYYCQSYEASNVVFGGGTKLTVL", "Kd": 174, "koff": 0.000193, "kon": "1.14e+06"}, {"binder": "mAb 3_7 (IgG4 converted from scFv 3_7) (antibody, V domains shown, as the VH stretch before the HCDR3 of m14; HCDR3 of 3_7; T to S at position 1 and D to Y at position 10 against the wild type; as the VH stretch after the HCDR3 of m14; as the light chain of m14; IgG4; also called IgG 3_7; source: EBNA 293 cells, cotransfected (pEU8.2 and pEU4.2), purified from the medium (protein A); copies: 2 + 2) VH: not shown VL: NFMLTQPHSVSESPGKTITISCTRSSGSIAGNYVQWYQQRPGSAPIIVIYEDNQRPSGVPDRFSGSIDSSSNSASLTISRLKTEDEADYYCQSYEASNVVFGGGTKLTVL", "Kd": 287, "koff": 0.000287, "kon": "1.03e+06"}, {"binder": "mAb 10_3 (IgG4 converted from scFv 10_3) (antibody, V domains shown, as the VH stretch before the HCDR3 of m14; HCDR3 of 10_3; T to S at position 1, Y to F at position 9 and D to G at position 10 against the wild type; as the VH stretch after the HCDR3 of m14; as the light chain of m14; IgG4; also called IgG 10_3; antibody 10_3; source: EBNA 293 cells, cotransfected (pEU8.2 and pEU4.2), purified from the medium (protein A); copies: 2 + 2) VH: not shown VL: NFMLTQPHSVSESPGKTITISCTRSSGSIAGNYVQWYQQRPGSAPIIVIYEDNQRPSGVPDRFSGSIDSSSNSASLTISRLKTEDEADYYCQSYEASNVVFGGGTKLTVL", "Kd": 139, "koff": 0.000148, "kon": "1.1e+06"}, {"binder": "mAb 3_14 (IgG4 converted from scFv 3_14) (antibody, V domains shown, as the VH stretch before the HCDR3 of m14; HCDR3 of 3_14; T to S at position 1 and D to G at position 10 against the wild type; as the VH stretch after the HCDR3 of m14; as the light chain of m14; IgG4; also called IgG 3_14; source: EBNA 293 cells, cotransfected (pEU8.2 and pEU4.2), purified from the medium (protein A); copies: 2 + 2) VH: not shown VL: NFMLTQPHSVSESPGKTITISCTRSSGSIAGNYVQWYQQRPGSAPIIVIYEDNQRPSGVPDRFSGSIDSSSNSASLTISRLKTEDEADYYCQSYEASNVVFGGGTKLTVL", "Kd": 172, "koff": 0.000176, "kon": "1.05e+06"}]}, {"target": "T1, recombinant human PD-L1, Fc-tagged …", "assay": "flow cytometry on cells; scFv displayed on yeast, titration with rhPD-L1-Fc (10 pM to 10 nM plus 30 nM), PBS 0.5% BSA, room temperature; binding MFI normalised on scFv expression; apparent KD = half-saturating antigen concentration", "settings": "one partner purified", "units": {"Kd": "pM"}, "values": [{"binder": "scFv-yeast clone 3_3 (scFv, V domains shown, as the stretch N-terminal of the HCDR3 of m4; HCDR3 of clone 3_3 (same as 10_4); as the stretch C-terminal of the HCDR3 of m4; also called 10_4; not shown: HA, C-terminal, kept) VH: not shown VL: NFMLTQPHSVSESPGKTITISCTRSSGSIAGNYVQWYQQRPGSAPIIVIYEDNQRPSGVPDRFSGSIDSSSNSASLTISRLKTEDEADYYCQSYEASNVVFGGGTKLTVL", "Kd": "< 1000"}, {"binder": "scFv-yeast clone 3_7 (scFv, V domains shown, as the stretch N-terminal of the HCDR3 of m4; HCDR3 of clone 3_7; as the stretch C-terminal of the HCDR3 of m4; not shown: HA, C-terminal, kept) VH: not shown VL: NFMLTQPHSVSESPGKTITISCTRSSGSIAGNYVQWYQQRPGSAPIIVIYEDNQRPSGVPDRFSGSIDSSSNSASLTISRLKTEDEADYYCQSYEASNVVFGGGTKLTVL", "Kd": "< 1000"}, {"binder": "scFv-yeast clone 3_17 (scFv, V domains shown, as the stretch N-terminal of the HCDR3 of m4; HCDR3 of clone 3_17; as the stretch C-terminal of the HCDR3 of m4; not shown: HA, C-terminal, kept) VH: not shown VL: NFMLTQPHSVSESPGKTITISCTRSSGSIAGNYVQWYQQRPGSAPIIVIYEDNQRPSGVPDRFSGSIDSSSNSASLTISRLKTEDEADYYCQSYEASNVVFGGGTKLTVL", "Kd": "< 1000"}, {"binder": "scFv-yeast clone 10_12 (scFv, V domains shown, as the stretch N-terminal of the HCDR3 of m4; HCDR3 of clone 10_12; as the stretch C-terminal of the HCDR3 of m4; not shown: HA, C-terminal, kept) VH: not shown VL: NFMLTQPHSVSESPGKTITISCTRSSGSIAGNYVQWYQQRPGSAPIIVIYEDNQRPSGVPDRFSGSIDSSSNSASLTISRLKTEDEADYYCQSYEASNVVFGGGTKLTVL", "Kd": "< 1000"}, {"binder": "scFv-yeast clone 3_14 (scFv, V domains shown, as the stretch N-terminal of the HCDR3 of m4; HCDR3 of clone 3_14 (same as 10_2); as the stretch C-terminal of the HCDR3 of m4; also called 10_2; not shown: HA, C-terminal, kept) VH: not shown VL: NFMLTQPHSVSESPGKTITISCTRSSGSIAGNYVQWYQQRPGSAPIIVIYEDNQRPSGVPDRFSGSIDSSSNSASLTISRLKTEDEADYYCQSYEASNVVFGGGTKLTVL", "Kd": "< 1000"}, {"binder": "scFv-yeast clone 10_3 (scFv, V domains shown, as the stretch N-terminal of the HCDR3 of m4; HCDR3 of clone 10_3; as the stretch C-terminal of the HCDR3 of m4; not shown: HA, C-terminal, kept) VH: not shown VL: NFMLTQPHSVSESPGKTITISCTRSSGSIAGNYVQWYQQRPGSAPIIVIYEDNQRPSGVPDRFSGSIDSSSNSASLTISRLKTEDEADYYCQSYEASNVVFGGGTKLTVL", "Kd": "< 1000"}]}]}
